Target: human V1a receptor (human) (UniProt P37288)
Experiment: cell-based or functional assay

Sequence of human V1a receptor (human) (P37288 whole entry): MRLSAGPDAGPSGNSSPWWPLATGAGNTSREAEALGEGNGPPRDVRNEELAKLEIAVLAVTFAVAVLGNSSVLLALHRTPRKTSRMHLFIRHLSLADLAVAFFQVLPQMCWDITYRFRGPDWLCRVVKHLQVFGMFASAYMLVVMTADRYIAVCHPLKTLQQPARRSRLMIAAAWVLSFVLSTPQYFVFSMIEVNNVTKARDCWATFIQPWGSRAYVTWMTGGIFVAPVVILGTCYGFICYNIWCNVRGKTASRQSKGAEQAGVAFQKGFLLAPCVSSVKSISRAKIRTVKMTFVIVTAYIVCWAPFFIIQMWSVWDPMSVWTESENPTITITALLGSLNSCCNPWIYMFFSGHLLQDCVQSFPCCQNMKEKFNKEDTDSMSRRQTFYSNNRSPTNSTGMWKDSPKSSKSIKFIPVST

Row | Binder | Estimated V1a EC50 (calcium flux) [nM] | V1a Highest agonist effect (% of AVP)
1 | XFXNCPXG (Mpa at position 1, disulfide bond between Mpa and Cys; Hgn at position 4; (Gly)4 on the side chain of Lys 8; C-terminal amide) [Mpa-Tyr-Phe-Hgn-Asn-Cys-Pro-Lys(X)a-Gly-NH2; (X)a = (Gly)4 [SEQ ID NO. 11]] | 161 | 33.6 % of AVP
2 | XFXNCPXG (Mpa at position 1, disulfide bond between Mpa and Cys; Hgn at position 4; (Gly)6 on the side chain of Lys 8; C-terminal amide) [Mpa-Tyr-Phe-Hgn-Asn-Cys-Pro-Lys(X)a-Gly-NH2; (X)a = (Gly)6 [SEQ ID NO. 13]] | 45.9 | 28.2 % of AVP
3 | XFXNCPXG (Mpa at position 1, disulfide bond between Mpa and Cys; Hgn at position 4; (Gly)5 on the side chain of Lys 8; C-terminal amide) [Mpa-Tyr-Phe-Hgn-Asn-Cys-Pro-Lys(X)a-Gly-NH2; (X)a = (Gly)5 [SEQ ID NO. 12]] | 50.1 | 29.6 % of AVP
4 | XFXNCPXG (Mpa at position 1, disulfide bond between Mpa and Cys; Hgn at position 4; (Gly)3 on the side chain of Lys 8; C-terminal amide) [Mpa-Tyr-Phe-Hgn-Asn-Cys-Pro-Lys(X)a-Gly-NH2; (X)a = (Gly)3 [SEQ ID NO. 10]] | 53.5 | 32.9 % of AVP
5 | XFXNCPXG (Mpa at position 1, disulfide bond between Mpa and Cys; Hgn at position 4; Gly on the side chain of Lys 8; C-terminal amide) [Mpa-Tyr-Phe-Hgn-Asn-Cys-Pro-Lys(X)-Gly-NH2; X = Gly [SEQ ID NO. 8]] | 25.3 | 40.3 % of AVP
6 | XFXNCPXG (Mpa at position 1, disulfide bond between Mpa and Cys; Hgn at position 4; (Gly)2 on the side chain of Lys 8; C-terminal amide) [Mpa-Tyr-Phe-Hgn-Asn-Cys-Pro-Lys(X)a-Gly-NH2; (X)a = (Gly)2 [SEQ ID NO. 9]] | 38.2 | 37 % of AVP

Further lines, results first:

Row | Estimated V1a EC50 (calcium flux) [nM] | V1a Highest agonist effect (% of AVP) | Binder
7 | 30.9 | 26.1 % of AVP | XFXNCPXG (Mpa at position 1, disulfide bond between Mpa and Cys; Hgn at position 4; (Gly)7 on the side chain of Lys 8; C-terminal amide) [Mpa-Tyr-Phe-Hgn-Asn-Cys-Pro-Lys(X)a-Gly-NH2; (X)a = (Gly)7 [SEQ ID NO. 14]]
8 | 105 | 28.1 % of AVP | XFXNCPXG (Mpa at position 1, disulfide bond between Mpa and Cys; Hgn at position 4; (Gly)9 on the side chain of Lys 8; C-terminal amide) [Mpa-Tyr-Phe-Hgn-Asn-Cys-Pro-Lys(X)a-Gly-NH2; (X)a = (Gly)9 [SEQ ID NO. 16]]
9 | 226 | 24.8 % of AVP | XFXNCPXG (Mpa at position 1, disulfide bond between Mpa and Cys; Hgn at position 4; (Gly)8 on the side chain of Lys 8; C-terminal amide) [Mpa-Tyr-Phe-Hgn-Asn-Cys-Pro-Lys(X)a-Gly-NH2; (X)a = (Gly)8 [SEQ ID NO. 15]]

— patent US20230248800A1
